According to US10800847:

How the values were obtained:
[1] = target: HLA-B*3901 (B39) single antigen on Luminex beads (human); assay: Luminex single antigen, iBeads (#6), IVIg 1:8
[2] = target: HLA-B*4002 (B61) single antigen on Luminex beads (human); assay: Luminex single antigen, iBeads (#6), IVIg 1:8
[3] = target: HLA-B*3701 (B37) single antigen on Luminex beads (human); assay: Luminex single antigen, iBeads (#6), IVIg 1:8
[4] = target: HLA-B*4402 (B44) single antigen on Luminex beads (human); assay: Luminex single antigen, iBeads (#6), IVIg 1:8
[5] = target: HLA-B*2708 (B27) single antigen on Luminex beads (human); assay: Luminex single antigen, iBeads (#6), IVIg 1:8
[6] = target: HLA-B*3501 (B35) single antigen on Luminex beads (human); assay: Luminex single antigen, iBeads (#6), IVIg 1:8
[7] = target: HLA-B*3801 (B38) single antigen on Luminex beads (human); assay: Luminex single antigen, iBeads (#6), IVIg 1:8
[8] = target: HLA-B*4403 (B44) single antigen on Luminex beads (human); assay: Luminex single antigen, iBeads (#6), IVIg 1:8
[9] = target: HLA-B*4201 (B42) single antigen on Luminex beads (human); assay: Luminex single antigen, iBeads (#6), IVIg 1:8
[10] = target: HLA-B*4001 (B60) single antigen on Luminex beads (human); assay: Luminex single antigen, iBeads (#6), IVIg 1:8
[11] = target: HLA-B*4101 (B41) single antigen on Luminex beads (human); assay: Luminex single antigen, iBeads (#6), IVIg 1:8
[12] = target: HLA-B*2705 (B27) single antigen on Luminex beads (human); assay: Luminex single antigen, iBeads (#6), IVIg 1:8
[13] = target: HLA-B*4501 (B45) single antigen on Luminex beads (human); assay: Luminex single antigen, iBeads (#6), IVIg 1:8
[14] = target: HLA-B*4006 (B61) single antigen on Luminex beads (human); assay: Luminex single antigen, iBeads (#6), IVIg 1:8
[15] = target: HLA-B*4701 (B47) single antigen on Luminex beads (human); assay: Luminex single antigen, iBeads (#6), IVIg 1:8
[16] = target: HLA-A*0301 (A3) on single antigen beads (human) (UniProt P04439); assay: Luminex single antigen beads, iBeads (#6), 1:8
[17] = target: Albumin on negative control beads (serum albumin, HSA/BSA) (human or bovine); assay: Luminex single antigen beads, iBeads (#6), 1:8
[18] = target: HLA-B*3701 (B37) single antigen on Luminex beads (human); assay: Luminex single antigen, iBead vs regular bead, IVIg 1:8
[19] = target: HLA-B*4402 (B44) single antigen on Luminex beads (human); assay: as above
[20] = target: HLA-B*2708 (B27) single antigen on Luminex beads (human); assay: as above
[21] = target: HLA-B*3501 (B35) single antigen on Luminex beads (human); assay: as above
[22] = target: HLA-B*4201 (B42) single antigen on Luminex beads (human); assay: as above
[23] = target: HLA-B*4601 (B46) single antigen on Luminex beads (human); assay: as above
[24] = target: HLA-B*2705 (B27) single antigen on Luminex beads (human); assay: as above
[25] = target: HLA-B*4501 (B45) single antigen on Luminex beads (human); assay: as above
[26] = target: HLA-B*4006 (B61) single antigen on Luminex beads (human); assay: as above
[27] = target: HLA-B*4701 (B47) single antigen on Luminex beads (human); assay: as above
[28] = target: Albumin on negative control beads (serum albumin, HSA/BSA) (human or bovine); assay: Luminex single antigen beads, regular beads (#7), 1:8
[29] = target: HLA-B*3901 (B39) single antigen on Luminex beads (human); assay: Luminex single antigen, regular beads (#7), IVIg 1:8
[30] = target: HLA-B*3701 (B37) single antigen on Luminex beads (human); assay: as above
[31] = target: HLA-B*3501 (B35) single antigen on Luminex beads (human); assay: as above
[32] = target: HLA-B*3801 (B38) single antigen on Luminex beads (human); assay: as above
[33] = target: HLA-B*4403 (B44) single antigen on Luminex beads (human); assay: as above
[34] = target: HLA-B*4201 (B42) single antigen on Luminex beads (human); assay: as above
[35] = target: HLA-B*4001 (B60) single antigen on Luminex beads (human); assay: as above
[36] = target: HLA-B*4601 (B46) single antigen on Luminex beads (human); assay: as above
[37] = target: HLA-B*2705 (B27) single antigen on Luminex beads (human); assay: as above
[38] = target: HLA-B*4501 (B45) single antigen on Luminex beads (human); assay: as above
[39] = target: HLA-B*4006 (B61) single antigen on Luminex beads (human); assay: as above
[40] = target: HLA-B*4701 (B47) single antigen on Luminex beads (human); assay: as above
[41] = target: HLA-A*0301 (A3) on single antigen beads (human) (UniProt P04439); assay: Luminex, iBead MFI against regular bead MFI, 1:8
[42] = target: HLA-B*4601 (B46) single antigen on Luminex beads (human); assay: Luminex single antigen, iBeads (#6), IVIg 1:8
[43] = target: HLA-B*4002 (B61) single antigen on Luminex beads (human); assay: Luminex single antigen, iBead vs regular bead, IVIg 1:8
[44] = target: HLA-B*3801 (B38) single antigen on Luminex beads (human); assay: as above
[45] = target: HLA-B*4403 (B44) single antigen on Luminex beads (human); assay: as above
[46] = target: HLA-A*0301 (A3) on single antigen beads (human) (UniProt P04439); assay: Luminex single antigen beads, regular beads (#7), 1:8
[47] = target: HLA-B*4002 (B61) single antigen on Luminex beads (human); assay: Luminex single antigen, regular beads (#7), IVIg 1:8
[48] = target: HLA-B*4402 (B44) single antigen on Luminex beads (human); assay: as above
[49] = target: HLA-B*2708 (B27) single antigen on Luminex beads (human); assay: as above
[50] = target: HLA-B*4101 (B41) single antigen on Luminex beads (human); assay: as above
[51] = target: Albumin on negative control beads (serum albumin, HSA/BSA) (human or bovine); assay: Luminex, iBead MFI against regular bead MFI, 1:8
[52] = target: HLA-A*6901 (A69) single antigen on Luminex beads (human); assay: Luminex single antigen bead assay, iBeads (#6), IVIg 1:8
[53] = target: HLA-A*7401 (A74) single antigen on Luminex beads (human); assay: as above
[54] = target: HLA-A*6802 (A68) single antigen on Luminex beads (human); assay: as above
[55] = target: HLA-A*8001 (A80) single antigen on Luminex beads (human); assay: as above
[56] = target: HLA-A*6901 (A69) single antigen on Luminex beads (human); assay: Luminex single antigen bead assay, iBeads vs regular beads, IVIg 1:8
[57] = target: HLA-A*7401 (A74) single antigen on Luminex beads (human); assay: as above
[58] = target: HLA-A*6802 (A68) single antigen on Luminex beads (human); assay: as above
[59] = target: HLA-A*8001 (A80) single antigen on Luminex beads (human); assay: as above
[60] = target: HLA-A*6901 (A69) single antigen on Luminex beads (human); assay: Luminex single antigen bead assay, regular beads (#7), IVIg 1:8
[61] = target: HLA-A*7401 (A74) single antigen on Luminex beads (human); assay: as above
[62] = target: HLA-A*6802 (A68) single antigen on Luminex beads (human); assay: as above
[63] = target: HLA-A*8001 (A80) single antigen on Luminex beads (human); assay: as above

GamaSTAN S/D (IVIg, Talecris Biotherapeutics, Inc., USA) (antibody)
MFI [1]: 0 MFI | MFI [2]: 1190 MFI | MFI [3]: 392 MFI | MFI [4]: 3380 MFI | MFI [5]: 1410 MFI | MFI [6]: 653 MFI | MFI [7]: 0 MFI | MFI [8]: 2900 MFI | MFI [9]: 286 MFI | MFI [10]: 2290 MFI | MFI [11]: 870 MFI | MFI [12]: 1080 MFI | MFI [13]: 5400 MFI | MFI [14]: 2370 MFI | MFI [15]: 3210 MFI | MFI [16]: 0 MFI | MFI [17]: 5030 MFI | Difference % (iBead against regular bead MFI) [18]: -88% | Difference % (iBead against regular bead MFI) [19]: -22% | Difference % (iBead against regular bead MFI) [20]: 32% | Difference % (iBead against regular bead MFI) [21]: -4% | Difference % (iBead against regular bead MFI) [22]: -52% | Difference % (iBead against regular bead MFI) [23]: -20% | Difference % (iBead against regular bead MFI) [24]: -21% | Difference % (iBead against regular bead MFI) [25]: 47% | Difference % (iBead against regular bead MFI) [26]: -32% | Difference % (iBead against regular bead MFI) [27]: 81% | MFI [28]: 3790 MFI | MFI [29]: 0 MFI | MFI [30]: 3240 MFI | MFI [31]: 680 MFI | MFI [32]: 619 MFI | MFI [33]: 3390 MFI | MFI [34]: 598 MFI | MFI [35]: 1720 MFI | MFI [36]: 1830 MFI | MFI [37]: 1370 MFI | MFI [38]: 3670 MFI | MFI [39]: 3470 MFI | MFI [40]: 1770 MFI | Difference % (iBead against regular bead) [41]: -100%

Gamunex-C Lot NKLG1 (IVIg) (antibody)
MFI [1]: 242 MFI | MFI [2]: 1680 MFI | MFI [3]: 3640 MFI | MFI [4]: 1870 MFI | MFI [5]: 1340 MFI | MFI [6]: 1610 MFI | MFI [7]: 1380 MFI | MFI [8]: 2400 MFI | MFI [9]: 1090 MFI | MFI [42]: 3540 MFI | MFI [11]: 1490 MFI | MFI [12]: 1660 MFI | MFI [13]: 2110 MFI | MFI [14]: 2140 MFI | MFI [15]: 2800 MFI | MFI [17]: 7150 MFI | Difference % (iBead against regular bead MFI) [43]: 195% | Difference % (iBead against regular bead MFI) [18]: -41% | Difference % (iBead against regular bead MFI) [19]: -71% | Difference % (iBead against regular bead MFI) [21]: -3% | Difference % (iBead against regular bead MFI) [44]: 1% | Difference % (iBead against regular bead MFI) [45]: 116% | Difference % (iBead against regular bead MFI) [22]: 139% | Difference % (iBead against regular bead MFI) [23]: 17% | Difference % (iBead against regular bead MFI) [24]: 327% | Difference % (iBead against regular bead MFI) [25]: 91% | Difference % (iBead against regular bead MFI) [26]: -60% | Difference % (iBead against regular bead MFI) [27]: 10% | MFI [46]: 0 MFI | MFI [28]: 10800 MFI | MFI [29]: 0 MFI | MFI [47]: 569 MFI | MFI [30]: 6130 MFI | MFI [48]: 6460 MFI | MFI [49]: 0 MFI | MFI [31]: 1670 MFI | MFI [32]: 1360 MFI | MFI [33]: 1110 MFI | MFI [34]: 455 MFI | MFI [35]: 1680 MFI | MFI [36]: 3010 MFI | MFI [50]: 716 MFI | MFI [37]: 388 MFI | MFI [38]: 1110 MFI | MFI [39]: 5390 MFI | MFI [40]: 2550 MFI | Difference % (iBead against regular bead) [51]: -34%

IVIg GamaSTAN S/D (Talecris Biotherapeutics, Inc., USA) (antibody)
MFI [52]: 2410 MFI | MFI [53]: 431 MFI | MFI [54]: 2080 MFI | MFI [55]: 2850 MFI | Difference % (iBead MFI against regular bead MFI) [56]: 28% | Difference % (iBead MFI against regular bead MFI) [57]: 437% | Difference % (iBead MFI against regular bead MFI) [58]: 1% | Difference % (iBead MFI against regular bead MFI) [59]: 5% | MFI [60]: 1880 MFI | MFI [61]: 80 MFI | MFI [62]: 2060 MFI | MFI [63]: 2700 MFI
